We go through five substances from article PMC5123055.

The target in one experiment is ribosome (S. cerevisiae). Description: quantitative ribosome binding assay (ribosomes isolated from cell extract, immunoblot with αmyc). The settings on record: ribosomes isolated under low-salt conditions; parent: 45.4. A general note: A western blot detects proteins with antibodies after separation by electrophoresis.
Experiment [1] addresses ribosome (S. cerevisiae) (S. cerevisiae (endogenous in yeast extract)). Description: co-sedimentation; ribosome binding assay: cell extract (cycloheximide) spun through a low-salt sucrose cushion (25% sucrose, 20 mM Hepes/KOH pH 7.4, 120 mM potassium acetate, 2 mM magnesium acetate), 400,000 g, 4 °C, 25 min; immunoblot of supernatant and ribosomal pellet; strains: wild type, Δzuo1Δssz1, RAC-H128Q, Δssb1Δssb2 with Ssb1 variants.

For the substance “N-terminally myc-tagged Ssb1 (mycSsb1) (from UniProt P11484) K567E; R568E; R596D; K597D; K603D; R604D”, the response (% of total mycSsb1) with ribosome (S. cerevisiae) came out at 1.9.

Take “N-terminally myc-tagged Ssb1 (mycSsb1) (from UniProt P11484) K567E; R568E; K603D; R604D”: in the experiment with ribosome (S. cerevisiae), the response (% of total mycSsb1) was 3.

For the substance “mycSsb1 D2 (K603D/R604D) (from UniProt P11484 1-613) (natural protein)”, the ribosome-binding, percent of the mycSsb1 control in experiment [1] was less than 50%. On to “mycSsb1 D1 (R596D/K597D) (from UniProt P11484 1-613) (natural protein)”, for which, in experiment [1], the ribosome-binding, percent of the mycSsb1 control is less than 50%. As to “mycSsb1 LBC (K567E/R568E) (from UniProt P11484 1-613) (natural protein)”, the ribosome-binding, percent of the mycSsb1 control in experiment [1] is less than 50%.
